Measurements published in patent US8816055.

target: human plasma kallikrein (active form) (human), P03952; assay: Ki,app on full length pKal, enzyme inhibition; conditions: remark: other sources report otherwise
Sequence (P03952 20-390, chain 1 of 2): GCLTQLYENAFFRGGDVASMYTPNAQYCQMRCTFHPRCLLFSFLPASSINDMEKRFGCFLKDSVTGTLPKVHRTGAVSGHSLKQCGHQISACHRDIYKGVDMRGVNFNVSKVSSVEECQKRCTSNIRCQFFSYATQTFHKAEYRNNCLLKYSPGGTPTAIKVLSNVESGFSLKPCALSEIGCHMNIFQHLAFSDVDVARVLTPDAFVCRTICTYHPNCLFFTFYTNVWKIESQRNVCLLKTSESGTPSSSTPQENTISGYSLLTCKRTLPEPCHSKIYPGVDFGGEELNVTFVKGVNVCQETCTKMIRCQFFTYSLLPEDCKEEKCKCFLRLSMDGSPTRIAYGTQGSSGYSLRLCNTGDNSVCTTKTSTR
Sequence (P03952 391-638, chain 2 of 2): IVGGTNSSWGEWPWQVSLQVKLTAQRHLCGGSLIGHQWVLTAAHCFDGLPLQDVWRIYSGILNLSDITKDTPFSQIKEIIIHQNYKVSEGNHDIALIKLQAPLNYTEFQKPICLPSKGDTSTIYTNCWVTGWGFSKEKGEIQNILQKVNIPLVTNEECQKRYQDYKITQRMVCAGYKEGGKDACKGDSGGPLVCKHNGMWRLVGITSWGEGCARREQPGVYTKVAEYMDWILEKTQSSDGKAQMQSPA

Binder | Ki
X115-A03 (antibody, V domains shown) VL: DIQMTQSPSTLSASVGDRVTITCRASQSISSWLAWYQQKPGKAPKLLIYKASTLESGVPSRFSGSGSGTEFTLTISSLQPDDFATYYCQQYNTYWTFGQGTKVEIK VH: EVQLLESGGGLVQPGGSLRLSCAASGFTFSHYIMMWVRQAPGKGLEWVSGIYSSGGITVYADSVKGRFTISRDNSKNTLYLQMNSLRAEDTAVYYCAWRRIGVPRRDSFDMWGQGTMVTVSS | 0.16 nM
X115-D01 (antibody, V domains shown) VL: DIQMTQSPSTLSASVGDRVTITCRASQSISSWLAWYQQKPGKAPKLLIYKASTLESGVPSRFSGSGSGTEFTLTISSLQPDDFATYYCQQYNTYWTFGQGTKVEIK VH: EVQLLESGGGLVQPGGSLRLSCAASGFTFSIYSMHWVRQAPGKGLEWVSSIYPSRGMTWYADSVKGRFTISRDNSKNTLYLQMNSLRAEDTAVYYCAYRRTGIPRRDAFDIWGQGTMVTVSS | 0.18 nM
X115-B07 (antibody, V domains shown) VL: EIVLTQSPGTLSLSPGERATLSCRTSQFVNSNYLAWYQQKPGQAPRLLIYGASSRATGIPDRFSGSGSGTDFTLTISRLEPEDFAVYYCQQSSRTPWTFGQGTKVEIK VH: EVQLLESGGGLVQPGGSLRLSCAASGFTFSHYLMTWVRQAPGKGLEWVSYISPSGGHTIYADSVKGRFTISRDNSKNTLYLQMNSLRAEDTAVYYCAMVGQGIRGRSRTSYFAQWGQGTLVTVSS | 0.33 nM

The remaining lines, values ahead:

Ki | Binder
0.089 nM | X115-F02 (Fab, V domains shown) VL: DIQMTQSPSTLSASVGDRVTITCRASQSISSWLAWYQQKPGKAPKLLIYKASTLESGVPSRFSGSGSGTEFTLTISSLQPDDFATYYCQQYNTYWTFGQGTKVEIK VH: EVQLLESGGGLVQPGGSLRLSCAASGFTFSHYIMMWVRQAPGKGLEWVSGIYSSGGITVYADSVKGRFTISRDNSKNTLYLQMNSLRAEDTAVYYCAYRRIGVPRRDEFDIWGQGTMVTVSS
0.6 nM | X115-G04 (antibody, V domains shown) VL: DIQMTQSPSTLSASVGDRVTITCRASQSISSWLAWYQQKPGKAPKLLIYKASTLESGVPSRFSGSGSGTEFTLTISSLQPDDFATYYCQQYNTYWTFGQGTKVEIK VH: EVQLLESGGGLVQPGGSLRLSCAASGFTFSHYIMMWVRQAPGKGLEWVSGIYSSGGITVYADSVKGRFTISRDNSKNTLYLQMNSLRAEDTAVYYCAYRRTGVPRRDEFDIWGQGTMVTVSS
0.25 nM | X115-D05 (antibody, V domains shown) VL: EIVLTQSPGTLSLSPGERATLSCRTSQFVNSNYLAWYQQKPGQAPRLLIYGASSRATGIPDRFSGSGSGTDFTLTISRLEPEDFAVYYCQQSSRTPWTFGQGTKVEIK VH: EVQLLESGGGLVQPGGSLRLSCAASGFTFSDYMMAWVRQAPGKGLEWVSSIVPSGGHTHYADSVKGRFTISRDNSKNTLYLQMNSLRAEDTAVYYCARVARGIAARSRTSYFDYWGQGTLVTVSS
0.34 nM | X115-E09 (antibody, V domains shown) VL: EIVLTQSPGTLSLSPGERATLSCRTSQFVNSNYLAWYQQKPGQAPRLLIYGASSRATGIPDRFSGSGSGTDFTLTISRLEPEDFAVYYCQQSSRTPWTFGQGTKVEIK VH: EVQLLESGGGLVQPGGSLRLSCAASGFTFSHYLMTWVRQAPGKGLEWVSYISPSGGHTIYADSVKGRFTISRDNSKNTLYLQMNSLRAEDTAVYYCARVAQGIAARSRTSSVDQWGQGTLVTVSS
0.35 nM | X115-H06 (antibody, V domains shown) VL: EIVLTQSPGTLSLSPGERATLSCRTSQFVNSNYLAWYQQKPGQAPRLLIYGASSRATGIPDRFSGSGSGTDFTLTISRLEPEDFAVYYCQQSSRTPWTFGQGTKVEIK VH: EVQLLESGGGLVQPGGSLRLSCAASGFTFSHYLMTWVRQAPGKGLEWVSYISPSGGHTIYADSVKGRFTISRDNSKNTLYLQMNSLRAEDTAVYYCARVAQGISARSRTSYFDYWGQGTLVTVSS
